Experimental data from patent US20210253718A1, “FRIZZLED5 PROTEIN-BINDING AGENTS” (Modmab Therapeutics Corporation, priority 2016, published 2021).

Columns and labels:
FZD10 CRD = target: T1, FZD10 CRD (Homo sapiens, UniProt Q9ULW2); experiment: Immunofluorescence of anti-FZD5 Fab binding to CHO cells overexpressing Frizzled CRD; set-up: key: −: no binding; +: very weak binder; ++: weak binder; +++: good binder; ++++: very good binder
T1 construct: 30-156; GPI anchor signal (C); expressed in transfected cells; host or cells: CHO cells, lentiviral pLenti-puro
T1 sequence (Q9ULW2 30-156): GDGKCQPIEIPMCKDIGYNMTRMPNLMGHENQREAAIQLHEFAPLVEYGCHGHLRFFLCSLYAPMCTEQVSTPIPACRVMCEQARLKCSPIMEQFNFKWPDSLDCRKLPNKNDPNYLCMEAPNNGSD
Procedure, shortened: (§1)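 Specificity of anti-FZD5 Fabs was tested on CHO cells displaying membrane-anchored Frizzled CRDs (myc-tagged, GPI-linked), one family member per line. Detection was by immunofluorescence.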

FZD6 CRD = target: T2, FZD6 CRD (Homo sapiens, UniProt O60353); experiment: as above; set-up: key: −: no binding; +: very weak binder; ++: weak binder; +++: good binder; ++++: very good binder
T2 construct: S20-P146; GPI anchor signal (C); expressed in transfected cells; host or cells: CHO cells, lentiviral pLenti-puro
T2 sequence (O60353 20-146): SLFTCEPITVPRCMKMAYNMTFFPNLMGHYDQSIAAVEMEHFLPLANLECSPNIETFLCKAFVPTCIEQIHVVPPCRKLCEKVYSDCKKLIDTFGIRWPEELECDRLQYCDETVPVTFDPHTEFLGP
Procedure, shortened: as §1

FZD7 CRD = target: T3, FZD7 CRD (Homo sapiens, UniProt O75084); experiment: as above; set-up: key: −: no binding; +: very weak binder; ++: weak binder; +++: good binder; ++++: very good binder
T3 construct: D45-S169; GPI anchor signal (C); expressed in transfected cells; host or cells: CHO cells, lentiviral pLenti-puro
Procedure, shortened: as §1

ASPC-1 cells [1] = experiment: Effect of anti-FZD5 Fabs on proliferation of pancreatic cancer cell lines (percent growth inhibition); type: cell-based, human; conditions: Fab 10 μg/ml
Procedure: (§2) The effect of presently disclosed anti-FZD5 Fabs on proliferation of RNF43 loss-of-function mutant pancreatic cancer cell lines HPAFII, PATU8988S and ASPC-1; and on pancreatic cancer cell line RWP1, was tested at […] and 10 μg/ml.

HPAFII cells = experiment: as above; type: cell-based, human; conditions: for percent growth inhibition, HPAFII 2 μg/ml: Fab 2 μg/ml; for percent growth inhibition, HPAFII 10 μg/ml: Fab 10 μg/ml
Procedure: as §2

PATU8988S cells [2] = experiment: as above; type: cell-based, human; conditions: Fab 10 μg/ml
Procedure: as §2

RWP1 cells [3] = experiment: as above; type: cell-based, human; conditions: Fab 10 μg/ml
Procedure: as §2

PATU8988S cells [4] = experiment: as above; type: cell-based, human; conditions: Fab 2 μg/ml
ASPC-1 cells [5] = experiment: as above; type: cell-based, human; conditions: Fab 2 μg/ml
RWP1 cells [6] = experiment: as above; type: cell-based, human; conditions: Fab 2 μg/ml

Row | Molecule | Immunofluorescence binding, Frizzled CRD overexpressed on CHO cells: FZD10 (FZD10 CRD) | Immunofluorescence binding, Frizzled CRD overexpressed on CHO cells: FZD6 (FZD6 CRD) | Immunofluorescence binding, Frizzled CRD overexpressed on CHO cells: FZD7 (FZD7 CRD) | percent growth inhibition, ASPC-1 10 μg/ml (ASPC-1 cells [1]) [%] | percent growth inhibition, HPAFII 2 μg/ml (HPAFII cells) [%] | percent growth inhibition, HPAFII 10 μg/ml (HPAFII cells) [%] | percent growth inhibition, PATU8988s 10 μg/ml (PATU8988S cells [2]) [%] | percent growth inhibition, RWP1 10 μg/ml (RWP1 cells [3]) [%] | percent growth inhibition, PATU8988s 2 μg/ml (PATU8988S cells [4]) [%] | percent growth inhibition, ASPC-1 2 μg/ml (ASPC-1 cells [5]) [%] | percent growth inhibition, RWP1 2 μg/ml (RWP1 cells [6]) [%]
1 | Fab-2919: anti-FZD5 Fab with antibody variable region Fv-2919; CDR SEQ ID NOs: 35, 36, 58, 97, 134, 155 (antibody, V domains shown) VH: EVQLVESGGGLVQPGGSLRLSCAASGFNISYSYIHWVRQAPGKGLEWVASIYSSSGSTSYADSVKGRFTISADTSKNTAYLQMNSLRAEDTAVYYCARGAIDYWGQGTLVTVSS VL: DIQMTQSPSSLSASVGDRVTITCRASQSVSSAVAWYQQKPGKAPKLLIYSASSLYSGVPSRFSGSRSGTDFTLTISSLQPEDFATYYCQQWYSSGHVLITFGQGTKVEIK | − | − | − | 35.99 | 16.25 | 36.80 | −11.49 | 22.54 | −7.74 | 30.04 | 7.36
2 | Fab-2924: anti-FZD5 Fab with antibody variable region Fv-2924; CDR SEQ ID NOs: 35, 36, 63, 101, 139, 153 (antibody, V domains shown) VH: EVQLVESGGGLVQPGGSLRLSCAASGFNISYSYIHWVRQAPGKGLEWVASIYSYYSSTSYADSVKGRFTISADTSKNTAYLQMNSLRAEDTAVYYCARGALDYWGQGTLVTVSS VL: DIQMTQSPSSLSASVGDRVTITCRASQSVSSAVAWYQQKPGKAPKLLIYSASSLYSGVPSRFSGSRSGTDFTLTISSLQPEDFATYYCQQWYSGHSLITFGQGTKVEIK | − | − | − | 16.29 | −10.43 | −5.35 | −21.08 | 48.95 | −16.11 | 8.55 | 42.76
3 | Fab-2920: anti-FZD5 Fab with antibody variable region Fv-2920; CDR SEQ ID NOs: 35, 36, 59, 98, 135, 170 (antibody, V domains shown) VH: EVQLVESGGGLVQPGGSLRLSCAASGFNISYYYIHWVRQAPGKGLEWVASIYPSSGSTSYADSVKGRFTISADTSKNTAYLQMNSLRAEDTAVYYCARGGMDYWGQGTLVTVSS VL: DIQMTQSPSSLSASVGDRVTITCRASQSVSSAVAWYQQKPGKAPKLLIYSASSLYSGVPSRFSGSRSGTDFTLTISSLQPEDFATYYCQQWFAGALITFGQGTKVEIK | − | − | − | 40.69 | 29.48 | 32.93 | −5.60 | −3.09 | 6.20 | 33.66 | −16.26
4 | Fab-2921: anti-FZD5 Fab with antibody variable region Fv-2921; CDR SEQ ID NOs: 35, 36, 60, 98, 136, 162 (antibody, V domains shown) VH: EVQLVESGGGLVQPGGSLRLSCAASGFNISYYYIHWVRQAPGKGLEWVASIYPSSGSTSYADSVKGRFTISADTSKNTAYLQMNSLRAEDTAVYYCARGAMDYWGQGTLVTVSS VL: DIQMTQSPSSLSASVGDRVTITCRASQSVSSAVAWYQQKPGKAPKLLIYSASSLYSGVPSRFSGSRSGTDFTLTISSLQPEDFATYYCQQWYAGSLITFGQGTKVEIK | − | − | − | 47.95 | 30.70 | 44.23 | −16.29 | −0.10 | −1.56 | 43.20 | −4.47
5 | Fab-2925: anti-FZD5 Fab with antibody variable region Fv-2925; CDR SEQ ID NOs: 35, 36, 64, 102, 140, 172 (antibody, V domains shown) VH: EVQLVESGGGLVQPGGSLRLSCAASGFNLSYSSMHWVRQAPGKGLEWVASIYPSYGSTYYADSVKGRFTISADTSKNTAYLQMNSLRAEDTAVYYCARYGYFGLDYWGQGTLVTVSS VL: DIQMTQSPSSLSASVGDRVTITCRASQSVSSAVAWYQQKPGKAPKLLIYSASSLYSGVPSRFSGSRSGTDFTLTISSLQPEDFATYYCQQAWVYASLFTFGQGTKVEIK | − | − | ++ | −3.44 | −11.24 | −17.38 | −22.86 | 33.53 | −8.12 | −0.26 | 30.69
6 | Fab-2927: anti-FZD5 Fab with antibody variable region Fv-2927; CDR SEQ ID NOs: 35, 36, 66, 104, 142, 174 (antibody, V domains shown) VH: EVQLVESGGGLVQPGGSLRLSCAASGFNIYYSSMHWVRQAPGKGLEWVASIYPSYGYTSYADSVKGRFTISADTSKNTAYLQMNSLRAEDTAVYYCARYGYYGFDYWGQGTLVTVSS VL: DIQMTQSPSSLSASVGDRVTITCRASQSVSSAVAWYQQKPGKAPKLLIYSASSLYSGVPSRFSGSRSGTDFTLTISSLQPEDFATYYCQQWGSHGYLITFGQGTKVEIK | − | − | ++++ | 31.00 | 6.46 | −7.63 | −23.95 | 70.38 | −15.15 | 12.47 | 46.02
